Data on six sequences can be found in patent US20170114420.

Test in all cases: ELONA
Data set [1] concerns Norovirus GII.7 VLP, capsid protein VP1 (Norovirus GII.7). As to conditions: 1 uM aptamer, RT.
Data set [2] relates to Norovirus GI.4 VLP, capsid protein VP1 (Norovirus GI.4). Particulars: 1 uM aptamer, RT.
The subject of data set [3] is Norovirus GI.7 VLP, capsid protein VP1 (Norovirus GI.7). As to conditions: 1 uM aptamer, RT.
Data set [4] deals with Norovirus GII.12 VLP, capsid protein VP1 (Norovirus GII.12). As to conditions: 1 uM aptamer, RT.
The subject of data set [5] is Norovirus GI.8 VLP, capsid protein VP1 (Norovirus GI.8). Particulars: 1 uM aptamer, RT.
The subject of data set [6] is Norovirus GII.4 (Grimsby) VLP, capsid protein VP1 (Norovirus GII.4 Grimsby). Particulars: 1 uM aptamer, RT.
Data set [7] concerns Norovirus GI.6 VLP, capsid protein VP1 (Norovirus GI.6). As to conditions: 1 uM aptamer, RT.
In data set [8] the test system is Norovirus GII.1 VLP, capsid protein VP1 (Norovirus GII.1). Particulars: 1 uM aptamer, RT.
Data set [9] deals with Norovirus GII.6 VLP, capsid protein VP1 (Norovirus GII.6). As to conditions: 1 uM aptamer, RT.
In data set [10] the test system is Norovirus GII.3 VLP, capsid protein VP1 (Norovirus GII.3). As to conditions: 1 uM aptamer, RT.
For data set [11], the system named is Norovirus GII.17 VLP, capsid protein VP1 (Norovirus GII.17). Particulars: 1 uM aptamer, RT.
Data set [12] concerns Norovirus GII.4 (Houston) VLP, capsid protein VP1 (Norovirus GII.4 Houston). As to conditions: 1 uM aptamer, RT.
In data set [13] the test system is Norovirus GII.4 (Sydney) VLP, heat-denatured (80 C, 5 min) (Norovirus GII.4 Sydney). As to conditions: VLP denatured 80 C 5 min.

“AGTATACGTATTACCTGCAGCCACCAGTGTGTTGAGGTTTGAGCACACTGATAGAGTGTCACGATATCTCGGAGATCTTGC [SMV-19]”: the binding signal was determined as 4 T/N ratio in [1]; 1.7 T/N ratio in data set [2]; 10.3 T/N ratio in data set [3]; 1.5 T/N ratio in data set [4]; 1.7 T/N ratio in [5]; 9.6 T/N ratio in data set [6]. Besides, the binding signal is 3.7 T/N ratio in data set [7]; 7.1 T/N ratio in data set [8]; 1.8 T/N ratio in [9]; 1.7 T/N ratio in data set [10]; 3 T/N ratio in data set [11]; 12.5 T/N ratio in data set [12].

“AGTATACGTATTACCTGCAGCCATCTGTGTGAAGACTATATGGCGCTCACATATTTCTTTCCGATATCTCGGAGATCTTGC [SMV-25]”: the binding signal in data set [1] is 9.1 T/N ratio; in data set [2], 5.6 T/N ratio; in [3], 3.5 T/N ratio; in [4], 1.9 T/N ratio; in data set [5] it was 6.2 T/N ratio; in data set [6] it was 10.4 T/N ratio. In addition, the binding signal came to 2.4 T/N ratio in [7]; 9.4 T/N ratio in [8]; 7.3 T/N ratio in [9]; 5.4 T/N ratio in [10]; 2 T/N ratio in data set [11]; 11 T/N ratio in data set [12].

Regarding “AGTATACGTATTACCTGCAGCCCATGTTTTGTAGGTGTAATAGGTCATGTTAGGGTTTCTGCGATATCTCGGAGATCTTGC [SMV-21]”, the binding signal in data set [1] stood at 13.5 T/N ratio; in data set [2] it was 4.3 T/N ratio; in data set [3] it was 8.1 T/N ratio; in data set [4], 6.6 T/N ratio; in data set [5], 4.6 T/N ratio; in data set [6], 6.4 T/N ratio. Moreover, the binding signal in [7] stood at 3.8 T/N ratio; in data set [8] it was 8.6 T/N ratio; in [9] it was 3 T/N ratio; in data set [10] it was 11.8 T/N ratio; in [11], 12.2 T/N ratio; in data set [12], 11.3 T/N ratio.

For “AGTATACGTATTACCTGCAGCTGACCGAGTGTCTGGTCATTTTCGATGTCTGTTGTTAGGCCGATATCTCGGAGATCTTGC [SMV-26]”, the binding signal is 2.8 T/N ratio in data set [1]; 1.1 T/N ratio in [2]; 1.8 T/N ratio in [3]; 2.4 T/N ratio in [4]; 1.2 T/N ratio in [5]; 3.2 T/N ratio in data set [6]. Also, the binding signal came out at 1.5 T/N ratio in [7]; 2.1 T/N ratio in [8]; 2.8 T/N ratio in data set [9]; 2.4 T/N ratio in [10]; 1.3 T/N ratio in data set [11]; 2.8 T/N ratio in [12].

Turning to “AGTATACGTATTACCTGCAGCTGGGAAGAGGTCCGGTAAATGCAGGGTCAGCCCGGAGAGCGATATCTCGGAGATCTTGC [M6-2]”, the binding signal (VLP/no VLP ratio) in data set [1] amounted to 8.02; in data set [2], 3.36; in data set [3], 7.56; in [4] it was 5.55; in [5], 4.55; in data set [6] it was 11.5. Also, the binding signal (VLP/no VLP ratio) came to 2.75 in data set [7]; 4.52 in data set [8]; 4.4 in [9]; 3.16 in data set [10]; 5.24 in [11]; 13 in data set [12]. The binding signal (% of untreated VLP signal) in data set [13] came to 1.98.

For the sequence “AGTATACGTATTACCTGCAGCTGTTTATGGGGATAAACGTATCTAATTCGTGTACTAATCACGATATCTCGGAGATCTTGC [M1]”, the binding signal (VLP/no VLP ratio) in [1] was found to be 7.47; in data set [2], 3.17; in data set [3], 7.32; in data set [4], 4.47; in data set [5], 2.61; in [6], 7.59. In addition, the binding signal (VLP/no VLP ratio) in data set [7] came out at 1.98; in [8], 3.59; in data set [9] it was 2.38; in data set [10], 2.94; in data set [11], 3.94; in [12], 10.4.
